Data reported in the supplement of paper PMC12042874.
± gives the uncertainty stated by the source.

Assay: amyloid nucleation score (Sup35N fusion, yeast selection) (log enrichment); library NNK2; higher = more nucleation; inactive = no reads after selection
Procedure, shortened: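 Three technical output replicates were used for random libraries. Psi-negative yeast expressing peptides of 20 random codons fused to Sup35N were induced with 100 μM copper sulfate for 24 hours and grown 7 days at 30°C on medium lacking adenine and uracil, and input and output plasmid inserts were Illumina-sequenced, excluding sequences with under 100 input reads. The nucleation score is the DiMSum log enrichment of output over input reads, centred on the mode score of non-aggregating sequences.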

Substance | amyloid nucleation score
PFVTK | 0.259 ± 0.29
SIKPVLVSDFEKAV | 0.661 ± 0.49
NGSSKIERDQRRWGQKAVDT | 2.83 ± 0.089
CWFPWSSYLRNMFELPKTWL | 0.529 ± 0.55
FRLYPVPESKDLGRPGMPRQ | 0.308 ± 0.23
VYSRDFRIQ | -1.1 ± 0.54
HYVVFVF | 6.37 ± 0.084
ILWLTADFTLLISNYMCLS | inactive
SVSLNCSPLFFYFRRYKVSR | 6.052 ± 0.038
GSIVVNGIGKLGKERRVTSV | 0.302 ± 0.21
NVYSAYNLACFALLYCLLIW | 0.691 ± 0.8
WNINRIPFKVRWRAIFHMYH | -1.25 ± 0.37
TVSPPLVVFAFRISLRSLRP | 1.12 ± 0.4
EVWYSPDLTLLVYPTPR | 1.46 ± 0.4
GFMFGMLTISLRSVMFVARV | -0.227 ± 0.32
RVKYILMVQSLIFWNHILNV | inactive
YIVCLMESIRI | 3.2 ± 0.17
TVVVYIRYRTPMRMVTPPSQ | 0.986 ± 0.21
PPRGFFVAWIVDFRGAGLMG | -0.743 ± 0.48
ESGFGMSSNWKPERNFW | inactive
GGVHGGFRSYVVAIWYGMLN | -1.37 ± 1.1
SIGGMMVPLISLKYSY | -0.784 ± 1.1

Substance | amyloid nucleation score
RSHGSQGMKSR | 1.12 ± 0.34
FRMNEQSPAEWSRSVYFGGG | -0.346 ± 0.49
SVLHPLTSKWNGKKWV | inactive
KFSASKSDISLSSYVVIMFM | 6.186 ± 0.036
YAMGGGKGEDDLSCWYDYAC | 0.219 ± 0.47
FFLGDRIWL | inactive
PGSTRAFIMAVWGAPTEWER | 2.86 ± 0.16
SILHSPLSVVYASNISCLF | 7.169 ± 0.066
SGYGAAITVNFDITEHGGM | 5.06 ± 0.066
SYLFIDDTVDCQLKERRYPN | -0.763 ± 0.62
WLLNLERDIFLLTLSGRMIK | 0.449 ± 0.8
NSPNCDHASRKLIHR | 0.07 ± 0.61
SYNLETFIFLWKESG | inactive
NLSRV | -0.741 ± 0.34
QFAYTRSSPVKIYLYNNYGA | 8.109 ± 0.037
LIERDNTWRATSRCITIESG | 1.17 ± 0.45
SSTFPPF | -0.691 ± 0.41
CVIGCSGWKRIFIISILYRV | -0.562 ± 1
LMGKGMSTLGDDGVFSRG | -0.378 ± 0.49
YTSSRGHYSIMGVIRMCDRL | 0.118 ± 0.25
HNPLS | inactive
YTLFNDASRLFD | inactive

Substance | amyloid nucleation score
HEPGLPVRSCNVGRHSLSIL | 0.522 ± 0.42
LLFPQANMKDRSSPGVDWAQ | 2.72 ± 0.068
YIAYGDFSSFFTLNIS | 7.476 ± 0.047
RAYFTSKMCIRQTWTEKILY | 5.13 ± 0.052
CLPGTCRRCQWGRGIDQSSE | 0.317 ± 0.41
HNGVRRHMSNVSKILHSYF | 0.02 ± 1
LAPLNSWKTY | -0.045 ± 0.56
TLPWFGSFLRGVFKVPLIRG | 2.27 ± 0.1
YFCSVSRFRVLDSDYYRKGW | -0.817 ± 1.1
CVHLLSVSGWDFQYYFQAFN | 1.17 ± 0.13
YASTRRIGLEDIVW | -0.821 ± 0.78
IVSETKITIVC | -0.275 ± 0.48
TGCMSMLFKCAGMCQWWSGG | 6.71 ± 0.086
LHIGKFNVNLFN | 4.32 ± 0.045
NYFVNSI | inactive
ASRMPSGVRSFWAKPR | 0.321 ± 0.32
IDSVIKTEARGQGVVARTRA | 1.33 ± 0.28
TCIVSRRSCTCNRSQSGYRR | 1.08 ± 0.22
CMEETMVSSLKLLTRPMTSR | 0.052 ± 0.29
CFGFYGAIVD | 0.023 ± 0.39
LFLHVSGNAYGNNCRLSGPL | 0.369 ± 0.22
GKSSHG | 0.93 ± 0.32

Substance | amyloid nucleation score
LTRMKT | -0.311 ± 0.63
IDRCGTLVTPDGINGRVTRV | 0.951 ± 0.55
RVMRLGTLEDNWGDHGLSSR | -0.583 ± 0.44
TLHWSMR | 8.355 ± 0.034
LGFAMWFTPRFCFTVYNSYD | -0.422 ± 1
ICYLKTQGKWFIILPWFVMM | 0.241 ± 0.8
ITILCLNVSMVYEVGQ | 7.778 ± 0.042
SYYVLRASTELYGFHVFFLR | -0.017 ± 1
MSRKWGGSKRCNGCPPKLVQ | 1.08 ± 0.22
KRGMRRKGDFTERKVETLVG | 2.39 ± 0.11
QYGHCAPDFGSTLLGISST | -0.601 ± 0.39
RVHSCCTGKIGYKGVIVISV | 0.051 ± 0.43
IERHIYGMSDAVLGVD | -0.493 ± 1.1
YCVLMNS | -0.173 ± 0.41
ITCDRYITDVIDNEA | inactive
GMIGNTIGNECTIYLNDQYV | 0.825 ± 0.34
RDARNKFCDGLTVGILGACM | -0.368 ± 0.29
VRNSSV | inactive
SEFGSNEYRDGLGVYYGST | -0.542 ± 0.33
AWRMCTV | 0.302 ± 0.33
TALATDTSFRRSRRQTNQIF | 0.706 ± 0.54
